Data on 1 sequence can be found in patent US20170122849.

pKd: −log10 of the molar value.

In this series the test system is (KW)2KKA-eGFP-AKK(WK)2 (DNA-staining eGFP) (synthetic construct (eGFP from Aequorea victoria?)). Description: EMSA. The note with it: about; apparent Kd; TE/glycerol, 0.5x TBE 4-20% gel, EtBr stain. (In general: Mobility shift assays separate free from complexed probe on a gel.)

Consider “CTACTAGCACAATCGACTGTACGGACCGATCGAGTCACTAGCAGTCTAGCAA (double strand) [52-mer random sequence dsDNA]”, for which the negative logarithm of the Kd (pKd) is 4.83.

What is called pKd is the negative decadic logarithm of the Kd, by convention in mol/L.
